This data set deals with the molecule itself. The experiment in a line: SEC; about 100 ug of each purified protein, tags removed, on Superdex 75 10/300 GL in 50 mM Tris-HCl pH 8.0, 150 mM NaCl, 1 mM DTT at 4 °C, 0.5 ml/min; fractions on Coomassie-stained SDS-PAGE; calibrated with aldolase 158, conalbumin 75, ovalbumin 43, myoglobin 17 kDa (the results name a Sephacryl S-200 column).

The results in this text go back to paper PMC3489787, “Characterization of EssB, a protein required for secretion of ESAT-6 like proteins in Staphylococcus aureus” (BMC Microbiology, 2012).

B1: EssB^MC (domain or fragment)
chain: RKVGHTVFKWVAIGMTTLSVLLIAFLAFLYFSVMKHNERIEKGYQAFVKDDYTQVLNTYDDLDGKKLDKEALYIYAKSYIQTNKQGLEKDKKENLLNNVTPNSNKDYLLYWMELGQGHLDEAINIATYLDDNDITKLALINKLNEIKNNGDLSNDKRSEETKKYNDKLQDILDKEKQVKDEKAKSEEEKAKAKDEKLKQQEENEKKQKEQAQKDKEKRQEAERKK
notes: EssB of Staphylococcus aureus, codons 220-444, C-terminal domain with the PTMD (229-251); also called EssB^CM; his-essB^CM product; source: E. coli, pET15b, purified (Ni-NTA Agarose, thrombin cleavage); not shown: His6, N-terminal, cleaved
On to B1, for which the binding result is given as “binds”.

B2: EssB^NM (domain or fragment)
chain: MVKNHNPKNEMQDMLTPLDAEEAAKTKLRLDMREIPKSSIKPEHFHLMYLLEQHSPYFIDAELTELRDSFQIHYDINDNHTPFDNIKSFTKNEKLRYLLNIKNLEEVNRTRYTFVLAPDELFFTRDGLPIAKTRGLQNVVDPLPVSEAEFLTRYKALVICAFNEKQSFDALVEGNLELHKGTPFETKVIEAATLDLLTAFLDEQYQKQEQDYSQNYAYVRKVGHTVFKWVAIGMTTLSVLLIAFLAFLYFSV
notes: EssB of Staphylococcus aureus, codons 1-252, N-terminal domain with the PTMD (229-251); also called his-essB^NM product; EssB(1-252); source: E. coli, pET15b, purified (Ni-NTA Agarose, thrombin cleavage); not shown: His6, N-terminal, cleaved
Regarding B2, the binding result is “binds”.
